{"source": "paper PMC8091981", "about": "(Genes & Development, 2021)", "binders": {"B1": {"name": "Spn1 (natural protein, S. cerevisiae, UniProt Q06505 1-410, looked up)", "chain": "MSTADQEQPKVVEATPEDGTASSQKSTINAENENTKQNQSMEPQETSKGTSNDTKDPDNGEKNEEAAIDENSNVEAAERKRKHISTDFSDDDLEKEEHNDQSLQPTVENRASKDRDSSATPSSRQELEEKLDRILKKPKVRRTRRDEDDLEQYLDEKILRLKDEMNIAAQLDIDTLNKRIETGDTSLIAMQKVKLLPKVVSVLSKANLADTILDNNLLQSVRIWLEPLPDGSLPSFEIQKSLFAALNDLPVKTEHLKESGLGRVVIFYTKSKRVEAQLARLAEKLIAEWTRPIIGASDNYRDKRIMQLEFDSEKLRKKSVMDSAKNRKKKSKSGEDPTSRGSSVQTLYEQAAARRNRAAAPAQTTTDYKYAPVSNLSAVPTNARAVGVGSTLNNSEMYKRLTSRLNKKHK"}}, "target": "T1, Spt6-YW-FLAG (Y255A, W257A) (S. cerevisiae, UniProt P23615 1-1451, Y255A | W257A)", "T1 sequence (looked up)": "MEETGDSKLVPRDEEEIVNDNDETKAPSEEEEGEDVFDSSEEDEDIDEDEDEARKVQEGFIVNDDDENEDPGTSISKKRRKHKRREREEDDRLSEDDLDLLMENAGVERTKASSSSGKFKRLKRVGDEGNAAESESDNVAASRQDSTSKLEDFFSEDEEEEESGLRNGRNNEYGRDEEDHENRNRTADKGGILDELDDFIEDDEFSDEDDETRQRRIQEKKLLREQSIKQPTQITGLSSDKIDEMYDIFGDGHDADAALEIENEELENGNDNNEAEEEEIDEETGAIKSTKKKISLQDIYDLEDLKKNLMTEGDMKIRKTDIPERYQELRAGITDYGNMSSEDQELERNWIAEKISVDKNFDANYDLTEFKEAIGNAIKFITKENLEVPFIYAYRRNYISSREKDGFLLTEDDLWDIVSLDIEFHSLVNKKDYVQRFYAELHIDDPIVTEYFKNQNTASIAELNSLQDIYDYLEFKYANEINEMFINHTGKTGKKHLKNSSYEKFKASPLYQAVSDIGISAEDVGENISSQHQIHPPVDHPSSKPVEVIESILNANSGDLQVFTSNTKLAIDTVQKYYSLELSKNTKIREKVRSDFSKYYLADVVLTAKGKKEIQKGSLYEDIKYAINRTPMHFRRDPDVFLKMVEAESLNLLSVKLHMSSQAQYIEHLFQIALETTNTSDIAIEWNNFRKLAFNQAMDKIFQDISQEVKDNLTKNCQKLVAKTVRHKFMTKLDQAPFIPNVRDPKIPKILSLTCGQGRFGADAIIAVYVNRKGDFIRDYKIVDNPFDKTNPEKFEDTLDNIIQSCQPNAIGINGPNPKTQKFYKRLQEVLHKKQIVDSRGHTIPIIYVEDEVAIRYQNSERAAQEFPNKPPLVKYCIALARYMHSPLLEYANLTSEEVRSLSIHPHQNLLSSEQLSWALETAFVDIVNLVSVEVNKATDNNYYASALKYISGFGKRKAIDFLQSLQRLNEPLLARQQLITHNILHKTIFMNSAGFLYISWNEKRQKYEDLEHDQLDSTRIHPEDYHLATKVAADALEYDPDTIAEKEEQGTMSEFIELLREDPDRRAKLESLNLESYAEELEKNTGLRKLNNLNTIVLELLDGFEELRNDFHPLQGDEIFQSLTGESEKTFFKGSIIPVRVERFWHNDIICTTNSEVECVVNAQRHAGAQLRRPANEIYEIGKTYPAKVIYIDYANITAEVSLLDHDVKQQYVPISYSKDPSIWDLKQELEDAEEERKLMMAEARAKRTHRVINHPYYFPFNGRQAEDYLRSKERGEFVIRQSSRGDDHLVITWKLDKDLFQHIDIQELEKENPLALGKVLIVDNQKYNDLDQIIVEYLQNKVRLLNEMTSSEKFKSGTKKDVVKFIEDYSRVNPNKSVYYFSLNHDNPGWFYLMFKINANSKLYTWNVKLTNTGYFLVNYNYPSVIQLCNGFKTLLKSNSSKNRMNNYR", "assay": "co-IP"}
{"binder": "B1", "values": [{"measurement": "fold decrease of co-IP against wild-type Spt6-FLAG", "value": 20, "unit": "fold"}]}
